The target of assay [1] is T1, human EGFRvIII-hFc protein (human, UniProt P00533 25-645).
T1 construct: extracellular domain; made in HEK293 cells, purified on protein A; also called immunogen A; hFc-tagged EGFRvIII protein; not shown: human IgG Fc fragment (hFc) of the pCpC vector
In words: ELISA, coated EGFRvIII-hFc, antibody 0.001 nM. The method, boiled down: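 EGFRvIII-hFc coated at 1.0 μg/mL in PBS overnight at 4° C, blocked with PBS/0.01% Tween20/1% BSA for 2 h at room temperature. Purified anti-EGFRvIII antibody bound 2 h at 37° C, then HRP-labeled secondary 2 h at 37° C. TMB developed 30 min, stopped with 1.0N HCl, A450 nm read.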
In general terms: ELISA stands for enzyme-linked immunosorbent assay.

For assay [2], the target named is T2, human wild-type EGFR protein on the cell surface (human, UniProt P00533 25-1210).
T2 construct: whole, on cells; Endogenous on A431, HEB, U87MG cells and normal human primary hepatocytes; transfected on CHOk1-EGFR cells; The cell is named under assay; also called A431; HEB
In words: FACS on CHOk1-EGFR cells; CHOk1-EGFR cells (recombinant EGFR expression). Here is the method:
The cells are washed twice with the HBSS buffer and are counted, and then the cells are diluted with the HBSS buffer to 2×10⁶ cells/ml, added with 1% goat serum blocking solution, with the percentage being the mass percentage, and incubated on ice for 30 minutes, and then centrifugally washed twice with the HBSS buffer. The collected cells are suspended to 2×10⁶ cells/mL with an FACS buffer (HBSS+1% BSA, with the percentage being the mass percentage), added to a 96-well FACS reaction plate at 100 μL/well, then added with 100 μL/well of the purified EGFRvIII antibody (samples to be tested) obtained in example 2, and incubated on ice for 2 hours. The plate is centrifugally washed twice with the FACS buffer, added with 100 μL/well of a fluorescence (Alexa 488) labeled secondary antibody (purchased from Invitrogen), and then incubated on ice for 1 hour. […] The cells are suspended in 100 μL of the FACS buffer, and the results are detected and analyzed by FACS (FACS Calibur, purchased from BD). Data analysis is performed by using the software (CellQuest) to obtain the mean fluorescence intensity (MFI) of the cells. Data is further analyzed by using the software (GraphPad Prism5) to perform data fitting and calculate EC50. […]

The target of assay [3] is T2, human wild-type EGFR protein on the …. In words: FACS on A431 cells; A431 cells (large amount of wild-type EGFR on the surface). How it is done: The cells are washed twice with the HBSS buffer and are counted, and then the cells are diluted with the HBSS buffer to 2×10⁶ cells/ml, added with 1% goat serum blocking solution, with the percentage being the mass percentage, and incubated on ice for 30 minutes, and then centrifugally washed twice with the HBSS buffer. The collected cells are suspended to 2×10⁶ cells/mL with an FACS buffer (HBSS+1% BSA, with the percentage being the mass percentage), added to a 96-well FACS reaction plate at 100 μL/well, then added with 100 μL/well of the purified EGFRvIII antibody (samples to be tested) obtained in example 2, and incubated on ice for 2 hours. The plate is centrifugally washed twice with the FACS buffer, added with 100 μL/well of a fluorescence (Alexa 488) labeled secondary antibody (purchased from Invitrogen), and then incubated on ice for 1 hour. The plate is centrifugally washed 3 times with the FACS buffer, added with 100 μL/well of a fixing solution [4% (v/v) paraformaldehyde] for suspending the cells, and centrifugally washed twice with the FACS buffer after 10 minutes. The cells are suspended in 100 μL of the FACS buffer, and the results are detected and analyzed by FACS (FACS Calibur, purchased from BD). Data analysis is performed by using the software (CellQuest) to obtain the mean fluorescence intensity (MFI) of the cells. Data is further analyzed by using the software (GraphPad Prism5) to perform data fitting and calculate EC50. […] A431 cells (human epidermal cell cancer cell lines) have a large amount of wild-type EGFR protein expressed on the surface thereof. […] U87MG cells (human glioma cell lines) have a small amount of wild-type EGFR protein expressed on the surface thereof, while HEB cells (human glioma cell lines) have a high level of wild-type EGFR protein expression on the surface thereof.

In assay [4] the target is T3, human EGFRvIII protein on the cell surface (human, UniProt P00533 25-1210).
T3 construct: whole, on cells; the cell line is named under assay; also called hEGFRvIII; U87MG-hEGFRvIII
In words: FACS on U87MG-EGFRvIII cells. The method, boiled down:
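U87MG-EGFRvIII, A431 and primary human hepatocytes (2×10⁶ cells/mL, goat-serum blocked) were incubated with antibody on ice for 2 h, then with an Alexa 488 secondary (1:1000) for 1 h and fixed in 4% paraformaldehyde. Mean fluorescence intensity was read by flow cytometry, and EC50 was derived by curve fitting.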

The record followed here is patent US20210032351A1 (XDCEXPLORER SHANGHAI, published 2021).

B1: Murine anti-75G7 (antibody, V domains shown)
VH: EVQLQQSGPELVKPGASVKIPCKASGYTFTDYNMDWVKQSHGKSLEWIGDINPNNGDTIYNQKFKGKATLTVDKSSSTAYMELRSLTSEDTAVYYCARGDYDGYYPVYYAMDYWGQGTSVTVSS
VL: ENVLTQSPAIMSASPGEKVTMTCRASSSVSSSYLHWYQQKSGASPKLWIFSTSNLAAGVPARFSGSGSGTSYSLTVSSVEAEDAATYYCQQYSGYPLTFGAGTKLELK
notes: murine hybridoma antibody; also called 75G7C6
On to B1, for which the OD450 nm in assay [1] is 0.07.

B2: Chimeric antibody 75G7 (antibody, human IgG1, V domains shown)
VH: EVQLQQSGPELVKPGASVKIPCKASGYTFTDYNMDWVKQSHGKSLEWIGDINPNNGDTIYNQKFKGKATLTVDKSSSTAYMELRSLTSEDTAVYYCARGDYDGYYPVYYAMDYWGQGTSVTVSS
VL: ENVLTQSPAIMSASPGEKVTMTCRASSSVSSSYLHWYQQKSGASPKLWIFSTSNLAAGVPARFSGSGSGTSYSLTVSSVEAEDAATYYCQQYSGYPLTFGAGTKLELK
notes: also called c75G7C6; chimeric antibody c75G7C6
In the case of B2, the figures for the EC50 in assay [2], in assay [3] and in assay [4] were 14.2 nM, 13.4 nM and 5.75 nM, respectively. In addition, the “Maximum mean fluorescence intensity” value in assay [4] is 18100 MFI.
